Measurements from patent US20030054488A1 (published 2003).

How the values were obtained:
GPpep1 = target: T1, GPpep1
T1 chain: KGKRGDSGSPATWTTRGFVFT

[1] = target: the molecule itself; assay: gel filtration HPLC and analytical ultracentrifugation (main population 310±10 kDa)
Description: FIG. 11. rGPBP and rGPBPΔ26 form very active high molecular weight aggregates. About 300 μg of rGPBP (A) or rGPBPΔ26 (B) were subjected to gel filtration HPLC as described under Material and Methods. Vertical arrowheads and numbers respectively indicate the elution profile and molecular mass (kDa) of the molecular weight standards used. Larger aggregates eluted in the void volume (I), and the bulk of the material present in the samples eluted in the fractionation range of the column as a second peak between the 669 and 158 kDa markers (II). Fifteen microliters of the indicated minute fractions were subjected to SDS-PAGE and Coomasie blue staining. Five microliters of the same fractions were in vitro phosphorylated as described in Materials and Methods, and the reaction stopped by boiling in SDS sample buffer. […]
Gel-filtration HPLC. […] The material was eluted from the column at 0.5 ml/min, monitored at 220 nm and minute fractions collected.
rGPBP and rGPBP-26 exist as very active high molecular weight aggregates. Gel filtration analysis of affinity-purified rGPBP or rGPBPΔ26 yielded two chromatographic peaks (I and II), both displaying higher MW than expected for the individual molecular species, as determined by SDS-PAGE studies (89 kDa and 84 kDa, respectively ) (FIG. 11). […] ATP, and analyzed by immunoblot and autoradiography.

B1: FLAG-tagged recombinant GPBPΔ26 (rGPBPΔ26) (enzyme)
chain: DYKDDDDKMSDNQSWNSSGSEEDPETESGPPVERCGVLSKWTNYIHGWQDRWVVLKNNALSYYKSEDETEYGCRGSICLSKAVITPHDFDECRFDISVNDSVWYLRAQDPDHRQQWIDAIEQHKTESGYGSESSLRRHGSMVSLVSGASGYSATSTSSFKKGHSLREKLAEMETFRDILCRQVDTLQKYFDACADAVSKDELQRDKVVEDDEDDFPTTRSDGDFLHSTNGNKEKLFPHVTPKGINGIDFKGEAITFKATTAGILATLSHCIELMVKREDSWQKRLDKETEKKRRTEEAYKNAMTELKKKSHFGGPDYEEGPNSLINEEEFFDAVEAALDRQDKIEEQSQSEKVRLHWPTSLPSGDAFSSVGTHRFVQKVEEMVQNHMTYSLQDVGGDANWQLVVEEGEMKVYRREVEENGIVLDPLKATHAVKGVTGHEVCNYFWNVDVRNDWETTIENFHVVETLADNAIIIYQTHKRVWPASQRDVLYLSVIRKIPALTENDPETWIVCNFSVDHDSAPLNNRCVRAKINVAMICQTLVSPPEGNQEISRDNILCKITYVANVNPGGWAPASVLRAVAKREYPKFLKRFTSYVQEKTAGKPILF
notes: From pHIL-FLAG-n4'Δ26 in Pichia pastoris, made by deleting the 78-bp exon from pHIL-FLAG-n4'
For B1, the “trans-phosphorylation activity with GPpep1” value (GPpep1) was “the reduced in-solution auto- and trans-phosphorylation activities displayed by rGPBPΔ26” and the binding result [1] was “binds”.
